Measured values from paper PMC7722734, “Reverse C-glycosidase reaction provides C-nucleotide building blocks of xenobiotic nucleic acids” (Nature Communications, 2020).

T1: Ribokinase (RbsK) (Escherichia coli, UniProt P0A9J6)
T1 construct: full length, N-terminal His6 tag (pET15b), expressed in E. coli BL21(DE3) pLys; 32,290 Da
T1 sequence (P0A9J6 1-309): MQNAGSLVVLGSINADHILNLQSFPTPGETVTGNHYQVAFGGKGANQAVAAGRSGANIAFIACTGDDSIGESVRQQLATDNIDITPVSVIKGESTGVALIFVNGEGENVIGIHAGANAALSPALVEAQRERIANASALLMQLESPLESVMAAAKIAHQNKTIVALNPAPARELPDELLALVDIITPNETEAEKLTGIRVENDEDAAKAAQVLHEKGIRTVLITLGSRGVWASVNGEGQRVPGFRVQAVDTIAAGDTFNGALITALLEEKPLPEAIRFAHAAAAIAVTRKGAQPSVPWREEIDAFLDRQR

B1: YeiN (ΨMP C-glycosidase; β-pseudouridine 5′-phosphate glycosidase) (Escherichia coli K-12) (protein)
chain: MSELKISPELLQISPEVQDALKNKKPVVALESTIISHGMPFPQNAQTAIEVEETIRKQGAVPATIAIIGGVMKVGLSKEEIELLGREGHNVTKVSRRDLPFVVAAGKNGATTVASTMIIAALAGIKVFATGGIGGVHRGAEHTFDISADLQELANTNVTVVCAGAKSILDLGLTTEYLETFGVPLIGYQTKALPAFFCRTSPFDVSIRLDSASEIARAMVVKWQSGLNGGLVVANPIPEQFAMPEHTINAAIDQAVAEAEAQGVIGKESTPFLLARVAELTGGDSLKSNIQLVFNNAILASEIAKEYQRLAG

Legend:
Ribokinase (RbsK) = target: T1, Ribokinase (RbsK); test: phosphorylation, TLC; assay type: biochemical; conditions: 2 mM ATP with PEP and pyruvate kinase, 1 mM MgCl2, 10 mM HEPES pH 7.0, 37 °C
purified protein [1] = substrate: Cn1c(=O)cc[nH]c1=O; test: purified protein; conditions: 5 mM D-Rib5P, 2 mM MnCl2, 50 mM HEPES pH 7.0, 37 °C, reverse (synthesis) direction
purified protein [2] = substrate: Nc1cc(=O)[nH]c(=O)[nH]1; test: purified protein; conditions: 5 mM D-Rib5P, 2 mM MnCl2, 50 mM HEPES pH 7.0, 37 °C, reverse (synthesis) direction
purified protein [3] = substrate: O=c1[nH]ccc(=S)[nH]1; test: purified protein; conditions: 5 mM D-Rib5P, 2 mM MnCl2, 50 mM HEPES pH 7.0, 37 °C, reverse (synthesis) direction
purified protein [4] = substrate: O=c1cc[nH]c(=S)[nH]1; test: purified protein; conditions: 5 mM D-Rib5P, 2 mM MnCl2, 50 mM HEPES pH 7.0, 37 °C, reverse (synthesis) direction

Row | Molecule | phosphorylation, TLC (Ribokinase (RbsK)) | Km (purified protein [1]) [µM] | kcat (purified protein [1]) [s⁻¹] | Km (purified protein [2]) [µM] | kcat (purified protein [2]) [s⁻¹] | Km (purified protein [3]) [µM] | kcat (purified protein [3]) [s⁻¹] | Km (purified protein [4]) [µM] | kcat (purified protein [4]) [s⁻¹]
1 | OC[C@H]1OC(O)C[C@@H]1O (stereo partly drawn) [D-dRib] | D-Rib, D-dRib, D-Xyl, D-Ara,2F-D-Rib, D-Glc were accepted |  |  |  |  |  |  |  | 
2 | B1 |  | 1250 ± 330 | 0.46 ± 0.04 | 3230 ± 520 | 0.01 ± 0.01 | 1980 ± 300 | 0.01 ± 0.01 | 7400 ± 2200 | 0.43 ± 0.10
